The record followed here is patent US20160347802A1 (MAX PLANCK GESELLSCHAFT ZUR FOERDERUNG DER WISSENSCHAFTEN E …, published 2016).

The target of data set [1] is T1, human Netrin1, recombinant AVEXIS protein (biotinylated when immobilised) (human, UniProt O95631 25-604).
T1 construct: also called NTN1
Description: AVEXIS, prey NTN1 on bait NTN3. The source says: (§1) The Matn4-bait served as an internal prey-protein control and was used for normalization of the A486 nm values; conditioned medium (CM) serves as negative control; n=3.

Data set [2] concerns the molecule itself. Briefly: AVEXIS, prey NTN3 on bait NTN3.
Text: as §1

In data set [3] the target is T2, human Netrin-4, AVEXIS protein (human, UniProt Q9HB63 19-628).
T2 construct: not shown: AVEXIS tag (bait or prey)
T2 sequence (looked up): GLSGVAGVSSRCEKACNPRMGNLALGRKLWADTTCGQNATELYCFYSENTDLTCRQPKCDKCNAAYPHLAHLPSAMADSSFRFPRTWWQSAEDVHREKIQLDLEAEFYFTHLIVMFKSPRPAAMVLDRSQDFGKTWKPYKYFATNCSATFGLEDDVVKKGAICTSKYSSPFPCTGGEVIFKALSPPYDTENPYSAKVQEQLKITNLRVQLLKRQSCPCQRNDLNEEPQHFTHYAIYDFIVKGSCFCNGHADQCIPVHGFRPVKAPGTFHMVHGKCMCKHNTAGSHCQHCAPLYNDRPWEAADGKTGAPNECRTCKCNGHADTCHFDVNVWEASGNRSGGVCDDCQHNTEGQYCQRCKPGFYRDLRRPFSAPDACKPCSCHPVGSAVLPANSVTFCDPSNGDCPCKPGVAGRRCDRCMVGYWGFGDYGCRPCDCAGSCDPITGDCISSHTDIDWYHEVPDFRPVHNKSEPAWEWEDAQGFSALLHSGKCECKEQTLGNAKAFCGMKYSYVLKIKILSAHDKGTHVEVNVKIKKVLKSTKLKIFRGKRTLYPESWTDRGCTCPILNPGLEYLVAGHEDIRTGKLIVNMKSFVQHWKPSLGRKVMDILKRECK
Description: AVEXIS, prey NTN3 on bait NTN4.
Text: as §1

For data set [4], the target named is T1, human Netrin1, recombinant AVEXIS …. Briefly: AVEXIS, prey on bait NTN1; white = No binding.
Text: as §1

Data set [5] concerns the molecule itself. Briefly: AVEXIS, prey on bait NTN3; white = No binding.
Text: as §1

The target of data set [6] is T2, human Netrin-4, AVEXIS protein. Description: AVEXIS, prey on bait NTN4; white = No binding.
Text: as §1

The target of data set [7] is T3, human Netrin-G1, AVEXIS protein (human, UniProt Q9Y2I2 29-510).
T3 construct: not shown: AVEXIS tag (bait or prey)
T3 sequence (looked up): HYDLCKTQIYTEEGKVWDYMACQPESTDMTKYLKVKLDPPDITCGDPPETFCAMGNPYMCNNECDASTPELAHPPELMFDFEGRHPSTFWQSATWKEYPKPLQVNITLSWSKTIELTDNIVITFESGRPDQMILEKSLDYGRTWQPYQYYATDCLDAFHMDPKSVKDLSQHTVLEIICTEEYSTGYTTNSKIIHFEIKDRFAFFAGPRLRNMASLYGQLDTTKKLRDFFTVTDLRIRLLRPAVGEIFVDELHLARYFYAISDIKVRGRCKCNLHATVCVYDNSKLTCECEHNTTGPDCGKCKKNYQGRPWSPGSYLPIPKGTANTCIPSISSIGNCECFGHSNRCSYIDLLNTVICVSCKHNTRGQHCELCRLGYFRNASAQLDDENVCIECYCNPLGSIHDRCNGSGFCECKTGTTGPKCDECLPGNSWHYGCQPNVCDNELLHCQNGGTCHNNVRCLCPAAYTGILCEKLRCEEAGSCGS
Briefly: AVEXIS, prey on bait NTNG1; white = No binding.
Text: as §1

Data set [8] has as its target T4, human Netrin-G2, AVEXIS protein (human, UniProt Q96CW9 18-507).
T4 construct: not shown: AVEXIS tag (bait or prey)
T4 sequence (looked up): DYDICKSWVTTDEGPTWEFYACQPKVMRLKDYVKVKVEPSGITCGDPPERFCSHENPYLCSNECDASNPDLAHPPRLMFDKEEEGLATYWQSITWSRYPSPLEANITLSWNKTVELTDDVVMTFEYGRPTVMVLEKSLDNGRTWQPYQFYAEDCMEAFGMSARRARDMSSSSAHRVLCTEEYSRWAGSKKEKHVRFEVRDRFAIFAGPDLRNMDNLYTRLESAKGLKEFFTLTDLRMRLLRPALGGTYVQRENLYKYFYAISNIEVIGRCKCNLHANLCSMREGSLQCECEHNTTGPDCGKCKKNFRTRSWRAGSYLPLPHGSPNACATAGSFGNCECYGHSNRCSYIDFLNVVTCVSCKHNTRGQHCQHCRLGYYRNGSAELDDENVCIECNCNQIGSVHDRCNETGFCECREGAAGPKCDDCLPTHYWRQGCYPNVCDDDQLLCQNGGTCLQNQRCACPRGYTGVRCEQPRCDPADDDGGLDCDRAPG
Briefly: AVEXIS, prey on bait NTNG2; white = No binding.
Text: as §1

The target in data set [9] is T5, Matn4 ECD, mono-biotinylated bait protein (positive control).
T5 construct: extracellular domain; also called Matn4-bait
Briefly: AVEXIS, prey on bait Matn4 (+), positive control for the prey; dark = Binding.
Text: as §1

Data set [10] concerns the target T6, zebrafish Netrin1a, AVEXIS bait or prey protein (zebrafish).
T6 construct: Prey and bait forms are kept as one molecule; also called Ntn1a; Netrin1a bait
Description: AVEXIS competition: Netrin1a bait, DCC prey, purified Draxin as inhibitor.
Description: (§2) The procedure of the competition assay is based on the AVEXIS assay.

For data set [11], the target named is T6, zebrafish Netrin1a, AVEXIS bait or prey …. Description: AVEXIS competition: Netrin1a bait, Unc5b prey, purified Draxin as inhibitor.
Description: as §2
For data set [12] the target is unchanged. Briefly: AVEXIS competition: Netrin1a bait, monomeric DCC prey, Draxin added 30 min before the prey.
The target is the same in data set [13]. Description: AVEXIS competition: Netrin1a bait, monomeric DCC prey, Draxin added together with the prey.
Description: as §2
In order to do so we carried out an AVEXIS based competition assay and tested three different settings (FIG. 9A).
The target is the same in data set [14]. Briefly: AVEXIS competition: Netrin1a bait preincubated with monomeric DCC prey, Draxin added 30 min after the prey.
The target in data set [15] is T7, human DRAXIN, AVEXIS prey or bait protein (human, UniProt Q8NBI3 26-349).
T7 construct: It was tested in both bait and prey orientations
T7 sequence: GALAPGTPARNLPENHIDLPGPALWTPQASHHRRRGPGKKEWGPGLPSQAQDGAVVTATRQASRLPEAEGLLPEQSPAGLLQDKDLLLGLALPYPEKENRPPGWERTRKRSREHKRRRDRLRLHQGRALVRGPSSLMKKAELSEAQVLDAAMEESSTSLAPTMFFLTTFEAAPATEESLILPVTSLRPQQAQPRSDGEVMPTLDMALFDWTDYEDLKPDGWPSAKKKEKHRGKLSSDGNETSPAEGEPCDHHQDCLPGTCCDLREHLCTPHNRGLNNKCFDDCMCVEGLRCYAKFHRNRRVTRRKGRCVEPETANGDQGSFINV
Description: AVEXIS, pentameric prey zebrafish DraxinB on bait hDRAXIN.

In data set [16] the target is T8, zebrafish DraxinA, AVEXIS prey or bait protein (zebrafish, UniProt Q4V9H3 24-360).
T8 construct: Prey and bait forms of the same protein are kept as one molecule; Preys are pentameric except in the monomeric-prey experiments; also called DraxinA prey protein
T8 chain: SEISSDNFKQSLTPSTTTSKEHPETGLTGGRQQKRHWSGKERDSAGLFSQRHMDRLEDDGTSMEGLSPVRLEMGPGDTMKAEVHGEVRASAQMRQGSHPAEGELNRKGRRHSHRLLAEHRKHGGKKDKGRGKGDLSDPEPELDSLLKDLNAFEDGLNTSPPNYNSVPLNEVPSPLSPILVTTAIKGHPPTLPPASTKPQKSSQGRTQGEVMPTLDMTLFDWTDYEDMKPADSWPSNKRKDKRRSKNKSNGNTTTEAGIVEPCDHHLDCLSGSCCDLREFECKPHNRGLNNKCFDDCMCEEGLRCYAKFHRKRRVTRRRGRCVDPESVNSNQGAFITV
Description: AVEXIS, pentameric prey zebrafish DraxinB on bait zDraxinA.

Data set [17] concerns the molecule itself. Description: AVEXIS, pentameric prey zebrafish DraxinB on bait zDraxinB.
The target in data set [18] is T8, zebrafish DraxinA, AVEXIS prey or bait …. Briefly: AVEXIS, prey on bait zDraxinA, lower value; white = No binding.
Data set [19] shares this target. Description: AVEXIS, prey on bait zDraxinA, upper value; white = No binding.
Data set [20] deals with the molecule itself. Briefly: AVEXIS, prey on bait zDraxinB, lower value; white = No binding.
Data set [21] deals with the molecule itself. Briefly: AVEXIS, prey on bait zDraxinB, upper value; white = No binding.

B1: human Netrin-3, AVEXIS protein (ligand)
chain: not shown
notes: not shown: AVEXIS tag (bait or prey)
Consider B1, for which the binding result in data set [1], in [2] and in data set [3] was “no binding” in each case. The A486nm in [4] came out at 0.068; in data set [5], 0.068; in data set [6], 0.064; in data set [7], 0.069; in [8], 0.06; in data set [9] it was 0.224.

B2: purified His-tagged full-length zebrafish Draxin protein (Draxin-CD4d3+4-6XHis) (ligand)
chain: T8 chain
notes: Expressed in HEK293-6E cells and purified on HisTrap HP; also called purified full length DraxinA; purified DraxinA; not shown: rat Cd4d3+4 tag and 6xHis
In the case of B2, the “IC50 (read off the curve)” value is about 70 nM in [10]; about 10 nM in data set [11]; about 7 nM in [12]; about 10 nM in data set [13]; about 20 nM in [14].

B3: zebrafish DraxinB, AVEXIS protein (ligand)
chain: TNTHHNSPMEVFSENIIIPPKPEASIHHHTHQRTDRGRKERMTASQLRERPRIAIFHTQNEGPDLEGLSPVRLEMEPADKRRVMTPRKKTFMGSDSLIQEKMNISPGAETPEKAMRRPTVRKVFGGHITRAPHEEESLASGKKRRVSFDQRLNKASFGSPTEPVLPAATVGTFILPITAAVDGNPNPSSEPQVRRYLGGDVAPTFNMALFDWTDYEDMRPGDKKQYSKKQGSEKQATQSPSTGLVRLTSENNVCKHHLDCLPGSCCNLRKHVCELHNRGFNNKCYDSCMCEEGLRCYAKSHRHYRITRKKGQCVDPEDLNHAVSRWMQM
Turning to B3, the binding result in [15], in data set [16] and in data set [17] was “no binding” each time. The A486nm in [18] amounted to 0.056; in data set [19], 0.061; in [20] it was 0.059; in data set [21], 0.057.
